Assay [1] has as its target T1, recombinant human interleukin-5 (human, UniProt P05113 20-134).
T1 sequence (looked up): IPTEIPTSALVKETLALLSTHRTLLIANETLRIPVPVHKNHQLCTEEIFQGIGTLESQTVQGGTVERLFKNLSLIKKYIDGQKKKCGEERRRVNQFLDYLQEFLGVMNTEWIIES
The assay can be described thus: competition ELISA on plates coated with human IL-5; competitor biotinylated JES1-39D10. The protocol: Competition assays were carried out in which binding of the biotinylated antibody to plates coated with human IL-5 was measured in the presence of unlabelled antibody JES1-39D10 or antibody CMx5-1, CMX5-2 or CMX5-5, each of which had been purified by protein A/G affinity chromatography.
EIA plates were treated with 0.1 M NaHCO_3, pH 9.2, for 1 hour at room temperature. Human IL-5 in TBS was then added at […]. The plates were incubated overnight at 4° C. and then blocked with 3% BSA-TBS ml for 1 hour at room temperature. Fifty microliters of 2-fold serially diluted competing antibodies plus the appropriate amount of biotinylated antibody JES1-39D10 (also in a 50 μl volume) were added to each well, and the plates were incubated for 1 hour at room temperature.
The plates were then washed 5 times with TBS-Tween-20, incubated with 1 μg/ml horseradish peroxidase (HRP)-streptavidin conjugate for 1 hour at room temperature, washed 5 times with TBS-Tween-20, and developed with HRP substrate TMB. Absorbance of the samples was then measured spectrophotometrically at 450 nm.

Assay [2] concerns the target T1, recombinant human interleukin-5. The assay is described as follows: cell-based or functional assay.
The target is the same in assay [3]. The assay is described as follows: inhibition of binding of 0.5 nM radiolabeled human IL-5 to IL-5 receptor alpha chains on transfected COS cells.
Assay [4] has the same target. The assay can be described thus: captured antibody on plate, 125I-IL-5 binding, Scatchard analysis. The protocol:
To determine whether the humanized antibodies retained the ability to specifically bind to human IL-5, apparent dissociation constants of antibody/antigen complexes were measured. This was done by coating enzyme immunoassay plates with mouse anti-human IgG_4-Fc (5 µg per ml, 100 ill per well) in 50 mM bicarbonate buffer, pH 9.5. The plates were then blocked at room temperature for 90 minutes with BLOTTO, washed 3 times, and incubated at 37° C. for 2 hours with one of the humanized antibodies, either purified (100 µl per well with a final concentration of 0.05 µg per ml) or in the form of conditioned medium (100 µl per well).
After the plates were washed 3 times, a dilution series of ^125I-labeled human IL-5 at concentrations between 4,000 pM and 2 pM was applied to the wells in each plate in final volumes of 100 µl. All test wells were run in triplicate. Background binding was determined by using a 1000-fold molar excess of unlablled human IL-5 in control wells. The reactions were allowed to equilibrate at room temperature for 2 hours, at which time the wells were aspirated and washed 5 times with TBST. The wells were then separated and counted in a Pharmacia LKB γ-counter. All nonspecific binding controls were run in duplicate. The values obtained for bound human IL-5 were subjected to Scatchard analysis (using RADLIG software) to obtain dissociation constant (kd) values.

Numbering of substitutions follows the chain as printed.

As to monoclonal antibody JES1-39D10, the molar ratio to biotinylated JES1-39D10 needed to produce the same degree of binding inhibition in assay [1] was determined as 1 molar ratio. Moreover, in assay [2], the IC50 (pM), inhibition of IL-5-induced CD11b expression on HL-60 cells is 166 pM; the IC50 CMX5/IC50 39D10, inhibition of IL-5-induced CD11b expression on HL-60 cells (fold against 39D10) was 1; the MOLAR RATIO CMX5/IL-5, inhibition of IL-5-induced CD11b expression on HL-60 cells (molar ratio antibody:IL-5) was determined as 0.83. The IC50 in assay [3] fell in the range of 0.15 to 0.55 nM.

B1: humanized antibody CMX5-2 (antibody, V domains shown)
VH: QVKLVQAGGGVVQPGRSLRLSCIASGFTFSSNSVNWIRQAPGKGLEWVALIWSNGDTDYNSAIKSRFTISRDNSKSTLYMQMNSLRTEDTAVYFCAREYYGYFDYWGQGVLVTVSS
VL: DIQMTQSPSSLSVSVGDRVTITCLASEGISSYLAWYQQKPGLAPKLLIYGANSLQTGVPSRFSGSGSATDFTLTISSLQPEDIATYYCQQSYKFPNTFGQGTKVDVKR
For B1, in assay [1], the “molar ratio to biotinylated JES1-39D10 needed to produce the same degree of binding inhibition” value (shortened to “molar ratio … of binding inhibition”) is roughly 1.4 molar ratio. Besides, in assay [2], the “IC50 (pM), inhibition of IL-5-induced CD11b expression on HL-60 cells” value (shortened to “IC50 (pM), inhibition”) turned out to be 467 pM; the “IC50 CMX5/IC50 39D10, inhibition of IL-5-induced CD11b expression on HL-60 cells” value came out at 2.8 fold against 39D10; the “MOLAR RATIO CMX5/IL-5, inhibition of IL-5-induced CD11b expression on HL-60 cells” value is 2.3 molar ratio antibody:IL-5. In addition, the IC50 in assay [3] fell in the range of 0.35 to 0.7 nM.

B2: humanized antibody CMX5-3 (antibody, V domains shown)
VH: EVQLLESGGGLVQPGGSLRLSCAVSGLSLTSNSVNWIRQAPGKGLEWVALIWSNGDTDYNSAIKSRFTISRNDSKNTLYLQMNGLQAEVSAIYFCAREYYGYFDYWGQGTLVTVSS
VL: B1 VL
notes: VH LAY maximal, VL LAY maximal
As to B2, the binding result in assay [4] is “binds”.

B3: humanized antibody CMX5-4 (antibody, V domains shown)
VH: QVKLVQAGGGVVQPGRSLRLSCIASGLSLTSNGMHWVRQAPGKGLEWVAVIWSNGSRTYYGDSVKGRFTISRDNSKRTLYMQMNSLRTEDTAVYYCAREYYGYFDYWGQGVLVTVSS
VL: B1 VL with L24Q, A34N, S53T, L54R, Q55E, T56A, A68G
notes: VH HIL minimal, VL LAY minimal
Take B3: in assay [4], the binding result is “no binding”.

B4: humanized antibody CMX5-5 (antibody, V domains shown)
VH: B1 VH with I37V, S76R, F94Y
VL: B1 VL with A68G, L73F
notes: Kabat CDRs only on HIL VH and LAY VL
As for B4, in assay [1], the “molar ratio … of binding inhibition” value is roughly 1.4 molar ratio. In assay [2], the “IC50 (pM), inhibition” value is 800 pM; the “IC50 CMX5/IC50 39D10, inhibition of IL-5-induced CD11b expression on HL-60 cells” value came out at 4.8 fold against 39D10; the “MOLAR RATIO CMX5/IL-5, inhibition of IL-5-induced CD11b expression on HL-60 cells” value is 4 molar ratio antibody:IL-5. Further, the IC50 in assay [3] lay within 0.5 to 1.1 nM.

B5: humanized antibody CMX5-1 (antibody, V domains shown)
VH: B1 VH with A24V, F27L, T28S, F29L, S30T
VL: B1 VL with K45L
notes: VH HIL maximal, VL LAY maximal; also called CMX1; antibody from clone CJA25
Consider B5, for which the “molar ratio … of binding inhibition” value in assay [1] is roughly 3.3 molar ratio. In assay [2], the “IC50 (pM), inhibition” value was 1470 pM; the “IC50 CMX5/IC50 39D10, inhibition of IL-5-induced CD11b expression on HL-60 cells” value was 8.8 fold against 39D10; the “MOLAR RATIO CMX5/IL-5, inhibition of IL-5-induced CD11b expression on HL-60 cells” value was 7.3 molar ratio antibody:IL-5. Also, the IC50 in assay [3] was 1.5 to 3 nM.

Source of the values: patent US6451982 (SCHERING, dated 2002).
